Biological target: T1, Flag-NOD2 (human, UniProt Q9HC29 1-1040)
T1 construct: NOD2, human; The deletion constructs count up to aa 1040, the length of whole NOD2; also called NOD2 WT; Flag-NOD2 WT; source: HEK293T, transfected, in lysate; not shown: Flag, N-terminal, kept
Conditions: partners not purified

fold change of TRIM27 co-precipitated with NOD2 at 3 h after 10 µM MDP against untreated controls: > 2 fold
B1: myc-TRIM27 WT (natural protein, human, UniProt P14373 1-513, looked up)
chain: MASGSVAECLQQETTCPVCLQYFAEPMMLDCGHNICCACLARCWGTAETNVSCPQCRETFPQRHMRPNRHLANVTQLVKQLRTERPSGPGGEMGVCEKHREPLKLYCEEDQMPICVVCDRSREHRGHSVLPLEEAVEGFKEQIQNQLDHLKRVKDLKKRRRAQGEQARAELLSLTQMEREKIVWEFEQLYHSLKEHEYRLLARLEELDLAIYNSINGAITQFSCNISHLSSLIAQLEEKQQQPTRELLQDIGDTLSRAERIRIPEPWITPPDLQEKIHIFAQKCLFLTESLKQFTEKMQSDMEKIQELREAQLYSVDVTLDPDTAYPSLILSDNLRQVRYSYLQQDLPDNPERFNLFPCVLGSPCFIAGRHYWEVEVGDKAKWTIGVCEDSVCRKGGVTSAPQNGFWAVSLWYGKEYWALTSPMTALPLRTPLQRVGIFLDYDAGEVSFYNVTERCHTFTFSHATFCGPVRPYFSLSYSGGKSAAPLIICPMSGIDGFSGHVGNHGHSMETSP
notes: TRIM27, human, full length (aa 1-513 by the deletion constructs); cDNA from ImaGenes; also called RFP; source: HEK293T, transfected, in lysate; not shown: 3xmyc, N-terminal, kept

From publication PMC3400628 (PLoS ONE, 2012)
